How the values were obtained:
[1] = target: c-Src SH2; test: SH2 binding enrichment of the phosphorylated peptide, bacterial display (enrichment ratio); higher = better substrate or ligand; peptides without Tyr show the background
[2] = target: SHP2-C SH2; test: as above
[3] = target: Grb2 SH2 (UniProt P62993); test: as above
[4] = target: Hck (UniProt P08631); test: phosphorylation enrichment, bacterial display (enrichment ratio); higher = better substrate or ligand; peptides without Tyr show the background
Sequence of Hck (P08631 whole entry, looked up): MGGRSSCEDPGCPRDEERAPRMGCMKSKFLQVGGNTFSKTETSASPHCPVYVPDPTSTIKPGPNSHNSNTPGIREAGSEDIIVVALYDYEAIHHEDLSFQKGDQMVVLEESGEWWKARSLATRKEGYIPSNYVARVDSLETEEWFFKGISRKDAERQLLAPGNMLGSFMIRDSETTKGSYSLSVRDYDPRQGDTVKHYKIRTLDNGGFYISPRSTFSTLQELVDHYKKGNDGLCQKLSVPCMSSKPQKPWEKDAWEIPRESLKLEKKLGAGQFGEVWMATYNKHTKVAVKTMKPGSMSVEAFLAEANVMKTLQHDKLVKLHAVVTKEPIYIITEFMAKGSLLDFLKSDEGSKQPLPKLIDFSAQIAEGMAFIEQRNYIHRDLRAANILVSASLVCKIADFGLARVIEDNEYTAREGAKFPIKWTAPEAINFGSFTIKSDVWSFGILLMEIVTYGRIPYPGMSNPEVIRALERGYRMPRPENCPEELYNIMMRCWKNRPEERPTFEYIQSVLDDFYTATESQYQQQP

[5] = target: EPHB1 (UniProt P54762); test: as above
[6] = target: Jak2 (UniProt O60674); test: as above
Sequence of Jak2 (O60674 whole entry, looked up): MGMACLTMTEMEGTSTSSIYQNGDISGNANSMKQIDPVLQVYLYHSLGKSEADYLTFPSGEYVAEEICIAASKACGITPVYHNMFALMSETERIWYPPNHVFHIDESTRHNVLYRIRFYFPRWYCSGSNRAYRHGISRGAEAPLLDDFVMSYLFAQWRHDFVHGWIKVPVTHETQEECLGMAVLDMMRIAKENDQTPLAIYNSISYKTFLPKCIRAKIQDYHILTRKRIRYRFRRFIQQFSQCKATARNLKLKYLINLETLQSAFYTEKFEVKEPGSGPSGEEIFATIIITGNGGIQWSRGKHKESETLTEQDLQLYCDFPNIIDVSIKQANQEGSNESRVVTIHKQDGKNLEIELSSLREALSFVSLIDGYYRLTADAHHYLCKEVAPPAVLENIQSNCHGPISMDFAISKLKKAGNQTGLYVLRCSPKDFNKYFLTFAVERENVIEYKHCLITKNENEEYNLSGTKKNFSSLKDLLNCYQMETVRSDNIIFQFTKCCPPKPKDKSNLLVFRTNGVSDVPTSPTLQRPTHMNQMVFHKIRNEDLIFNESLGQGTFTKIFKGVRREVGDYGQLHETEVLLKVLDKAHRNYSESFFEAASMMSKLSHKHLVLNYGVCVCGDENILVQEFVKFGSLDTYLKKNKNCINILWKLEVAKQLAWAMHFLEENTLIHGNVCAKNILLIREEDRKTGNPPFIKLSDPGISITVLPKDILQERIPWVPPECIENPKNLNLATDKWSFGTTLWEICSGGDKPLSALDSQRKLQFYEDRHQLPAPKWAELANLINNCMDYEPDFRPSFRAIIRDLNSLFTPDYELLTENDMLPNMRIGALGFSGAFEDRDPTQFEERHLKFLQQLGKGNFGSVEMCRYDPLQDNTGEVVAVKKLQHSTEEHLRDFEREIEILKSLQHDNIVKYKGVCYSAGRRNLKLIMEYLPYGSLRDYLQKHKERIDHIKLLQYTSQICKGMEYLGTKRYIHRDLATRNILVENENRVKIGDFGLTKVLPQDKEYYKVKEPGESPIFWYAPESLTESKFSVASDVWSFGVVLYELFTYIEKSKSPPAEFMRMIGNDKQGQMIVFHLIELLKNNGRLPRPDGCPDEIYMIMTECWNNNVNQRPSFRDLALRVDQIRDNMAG

[7] = system: Fer (mouse); test: as above
[8] = target: FGFR3 (UniProt P22607); test: as above
[9] = target: FGFR1 (UniProt P11362); test: as above
[10] = system: c-Src; test: as above
[11] = system: c-Abl (mouse); test: as above
[12] = target: Fes (UniProt P07332); test: as above
Sequence of Fes (P07332 whole entry, looked up): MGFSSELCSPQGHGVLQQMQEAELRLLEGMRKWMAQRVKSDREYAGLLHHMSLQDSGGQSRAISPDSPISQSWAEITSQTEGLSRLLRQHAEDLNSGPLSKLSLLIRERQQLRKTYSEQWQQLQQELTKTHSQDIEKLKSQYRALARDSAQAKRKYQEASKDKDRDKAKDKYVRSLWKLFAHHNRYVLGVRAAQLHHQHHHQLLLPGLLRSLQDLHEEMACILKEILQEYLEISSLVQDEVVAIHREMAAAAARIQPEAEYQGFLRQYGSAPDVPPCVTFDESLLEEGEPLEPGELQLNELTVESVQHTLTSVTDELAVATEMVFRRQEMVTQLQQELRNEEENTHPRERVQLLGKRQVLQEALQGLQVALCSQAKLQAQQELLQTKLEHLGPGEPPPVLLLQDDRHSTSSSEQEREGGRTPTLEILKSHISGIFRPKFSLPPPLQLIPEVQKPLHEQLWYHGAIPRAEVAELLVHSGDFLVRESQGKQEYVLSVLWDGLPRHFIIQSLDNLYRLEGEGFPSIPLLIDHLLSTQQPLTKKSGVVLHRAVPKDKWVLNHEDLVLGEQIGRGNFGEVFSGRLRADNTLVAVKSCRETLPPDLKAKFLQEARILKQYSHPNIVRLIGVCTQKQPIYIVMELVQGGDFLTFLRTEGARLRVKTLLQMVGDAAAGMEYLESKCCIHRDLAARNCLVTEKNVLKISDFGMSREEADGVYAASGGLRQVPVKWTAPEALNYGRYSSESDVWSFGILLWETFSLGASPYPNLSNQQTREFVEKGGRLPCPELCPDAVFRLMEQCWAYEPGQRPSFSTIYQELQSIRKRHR

[13] = target: MERTK (UniProt Q12866); test: as above
Sequence of MERTK (Q12866 whole entry, looked up): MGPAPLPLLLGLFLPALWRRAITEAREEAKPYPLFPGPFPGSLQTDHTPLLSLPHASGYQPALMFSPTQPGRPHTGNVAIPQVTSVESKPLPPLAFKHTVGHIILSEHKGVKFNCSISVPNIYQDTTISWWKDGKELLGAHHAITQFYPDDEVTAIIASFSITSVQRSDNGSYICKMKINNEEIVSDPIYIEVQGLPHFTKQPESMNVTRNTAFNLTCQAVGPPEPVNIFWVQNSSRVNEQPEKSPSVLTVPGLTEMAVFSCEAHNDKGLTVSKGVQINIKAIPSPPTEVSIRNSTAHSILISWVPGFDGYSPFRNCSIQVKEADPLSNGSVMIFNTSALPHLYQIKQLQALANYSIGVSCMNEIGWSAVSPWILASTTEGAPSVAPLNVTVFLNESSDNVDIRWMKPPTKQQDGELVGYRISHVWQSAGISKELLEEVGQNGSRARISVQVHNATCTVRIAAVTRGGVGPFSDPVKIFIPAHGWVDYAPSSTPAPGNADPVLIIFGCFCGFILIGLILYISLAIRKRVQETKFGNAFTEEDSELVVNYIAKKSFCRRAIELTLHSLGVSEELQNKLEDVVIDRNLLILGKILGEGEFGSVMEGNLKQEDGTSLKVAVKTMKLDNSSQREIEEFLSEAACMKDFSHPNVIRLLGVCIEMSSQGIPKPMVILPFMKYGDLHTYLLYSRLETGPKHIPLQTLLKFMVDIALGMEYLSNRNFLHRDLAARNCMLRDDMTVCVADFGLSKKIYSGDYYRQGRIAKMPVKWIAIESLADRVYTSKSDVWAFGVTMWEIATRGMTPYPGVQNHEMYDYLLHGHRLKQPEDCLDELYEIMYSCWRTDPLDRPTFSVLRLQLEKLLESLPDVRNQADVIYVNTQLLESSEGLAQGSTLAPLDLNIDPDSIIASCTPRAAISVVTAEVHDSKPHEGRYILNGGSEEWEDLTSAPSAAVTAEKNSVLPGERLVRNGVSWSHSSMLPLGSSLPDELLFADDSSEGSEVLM

[14] = target: Fyn (UniProt P06241); test: as above
Sequence of Fyn (P06241 whole entry, looked up): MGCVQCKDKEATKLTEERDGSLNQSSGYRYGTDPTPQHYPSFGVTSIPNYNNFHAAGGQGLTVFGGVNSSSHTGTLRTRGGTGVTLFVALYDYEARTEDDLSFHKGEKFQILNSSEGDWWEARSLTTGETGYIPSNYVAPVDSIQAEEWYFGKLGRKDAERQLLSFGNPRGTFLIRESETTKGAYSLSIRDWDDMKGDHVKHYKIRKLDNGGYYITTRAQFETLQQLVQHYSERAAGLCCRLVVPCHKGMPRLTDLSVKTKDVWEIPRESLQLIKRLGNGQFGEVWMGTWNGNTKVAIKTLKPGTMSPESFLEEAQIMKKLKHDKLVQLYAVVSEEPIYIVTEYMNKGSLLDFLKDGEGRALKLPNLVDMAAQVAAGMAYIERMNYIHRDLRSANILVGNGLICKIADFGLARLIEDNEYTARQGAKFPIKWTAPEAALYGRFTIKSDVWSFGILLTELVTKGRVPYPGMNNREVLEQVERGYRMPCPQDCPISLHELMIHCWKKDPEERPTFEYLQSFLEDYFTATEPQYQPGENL

[15] = target: EPHB2 (UniProt P29323); test: as above
Sequence of EPHB2 (P29323 whole entry, looked up): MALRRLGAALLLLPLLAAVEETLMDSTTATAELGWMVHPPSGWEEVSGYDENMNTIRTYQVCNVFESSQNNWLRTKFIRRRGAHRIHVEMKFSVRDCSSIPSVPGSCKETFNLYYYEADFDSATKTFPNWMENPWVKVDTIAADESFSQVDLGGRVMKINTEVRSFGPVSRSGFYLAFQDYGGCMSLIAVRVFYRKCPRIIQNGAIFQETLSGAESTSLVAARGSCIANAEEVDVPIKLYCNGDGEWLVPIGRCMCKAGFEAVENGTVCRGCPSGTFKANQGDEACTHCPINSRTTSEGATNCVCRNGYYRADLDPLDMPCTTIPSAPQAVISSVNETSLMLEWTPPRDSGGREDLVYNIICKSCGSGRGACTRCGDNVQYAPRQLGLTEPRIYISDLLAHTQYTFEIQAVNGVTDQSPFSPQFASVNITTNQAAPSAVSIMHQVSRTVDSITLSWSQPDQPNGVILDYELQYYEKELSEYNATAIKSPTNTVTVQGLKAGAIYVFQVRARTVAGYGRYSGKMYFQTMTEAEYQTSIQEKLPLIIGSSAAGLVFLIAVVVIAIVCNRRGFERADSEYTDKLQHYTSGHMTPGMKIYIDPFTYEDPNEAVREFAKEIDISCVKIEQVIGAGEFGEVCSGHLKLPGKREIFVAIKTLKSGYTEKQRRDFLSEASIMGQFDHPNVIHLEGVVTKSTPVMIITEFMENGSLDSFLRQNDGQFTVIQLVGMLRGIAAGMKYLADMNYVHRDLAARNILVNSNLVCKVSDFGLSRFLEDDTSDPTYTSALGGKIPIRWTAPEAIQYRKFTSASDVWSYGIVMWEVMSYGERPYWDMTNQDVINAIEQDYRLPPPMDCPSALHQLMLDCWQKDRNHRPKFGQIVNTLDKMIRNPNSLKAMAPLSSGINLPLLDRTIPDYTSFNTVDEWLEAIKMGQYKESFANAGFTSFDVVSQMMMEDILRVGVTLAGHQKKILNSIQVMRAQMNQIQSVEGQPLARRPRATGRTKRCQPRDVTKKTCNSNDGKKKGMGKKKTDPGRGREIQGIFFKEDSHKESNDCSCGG

[16] = system: AncSZ; test: as above
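Wherever SH2 binding enrichment of the phosphorylated peptide, bacterial display is given: peptide library displayed on the E. coli surface as eCPX fusions, selected cells deep-sequenced, score is each peptide's frequency after selection divided by its frequency in the input.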
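Wherever phosphorylation enrichment, bacterial display is given: 11-residue human phosphosite peptides and single-mutation variants displayed on the E. coli surface, counted by deep sequencing, each peptide's frequency after selection divided by its frequency in the unselected input library; frequency after pTyr selection over input frequency; kinase dosed for 20-30% of maximal phosphorylation in three min.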

| Sequence | SH2 binding enrichment [1] | SH2 binding enrichment [2] | SH2 binding enrichment [3] | phosphorylation enrichment [4] | phosphorylation enrichment [5] | phosphorylation enrichment [6] | phosphorylation enrichment [7] | phosphorylation enrichment [8] | phosphorylation enrichment [9] | phosphorylation enrichment [10] | phosphorylation enrichment [11] | phosphorylation enrichment [12] | phosphorylation enrichment [13] | phosphorylation enrichment [14] | phosphorylation enrichment [15] | phosphorylation enrichment [16] |
| --- | --- | --- | --- | --- | --- | --- | --- | --- | --- | --- | --- | --- | --- | --- | --- | --- |
| ADLTEYLSTHF [UQCRC1_Y219_YF] | 0.4 | 0.539 | 0.717 | 0.604 | 0.681 | 1.2 | 0.493 | 0.923 | 0.699 | 0.561 | 0.958 | 1.35 | 0.571 | 0.577 | 0.672 | 1.43 |
| YRVAGYKTQGG [TIA1_Y383_E384K] | 0.409 | 0.553 | 0.68 | 0.366 | 0.368 | 0.42 | 0.363 | 0.376 | 0.434 | 0.435 | 1.98 | 0.461 | 0.312 | 0.494 | 0.309 | 0.509 |
| NPEACYQRLKK [TK2_Y190_T188A] | 1.1 | 0.949 | 1.11 | 0.802 | 0.417 | 0.892 | 0.419 | 0.471 | 0.381 | 0.685 | 0.558 | 0.597 | 0.484 | 0.474 | 0.507 | 0.63 |
| VGNAAYQAGSL [STK36_Y1181_P1185S] | 0.356 | 0.705 | 0.668 | 0.37 | 0.437 | 0.466 | 0.436 | 0.446 | 0.552 | 0.361 | 0.448 | 0.598 | 0.312 | 0.401 | 0.37 | 0.565 |
| EFISEYCGEII [EZH2_Y641] | 0.617 | 0.809 | 0.947 | 0.664 | 0.901 | 1.05 | 0.678 | 1.05 | 0.604 | 0.576 | 0.905 | 1.33 | 0.616 | 0.692 | 0.716 | 1.61 |
| TWSRSYRSDRL [CRYBB1_Y131_S129R] | 0.38 | 0.354 | 0.636 | 0.614 | 0.445 | 0.778 | 0.452 | 0.494 | 0.607 | 0.545 | 0.586 | 0.715 | 0.518 | 0.453 | 0.51 | 0.676 |
| KKFVPYYDLFM [IPO5_Y530_E525K] | 2.43 | 1.14 | 1.6 | 2.1 | 4.25 | 1.07 | 1.3 | 3.24 | 4.49 | 2.32 | 0.686 | 1.05 | 6.5 | 2.06 | 4.22 | 0.895 |
| RFLFFYSFLLK [PTEN_Y178_V175L_YF] | 0.808 | 1.29 | 1.58 | 0.631 | 0.984 | 1.53 | 0.765 | 0.754 | 0.885 | 1.41 | 1.51 | 1.78 | 0.782 | 0.79 | 0.574 | 2.12 |
| TDGIAYEFRVT | 0.449 | 0.575 | 0.577 | 0.49 | 0.608 | 1.37 | 0.639 | 0.916 | 0.528 | 0.491 | 0.933 | 1.51 | 0.403 | 0.487 | 0.582 | 1.36 |
| NELTFYCFKKD [CD59_Y87_C89Y_YF] | 0.404 | 0.504 | 0.754 | 0.448 | 0.541 | 1.12 | 0.591 | 0.614 | 0.456 | 0.35 | 0.758 | 1.22 | 0.381 | 0.412 | 0.492 | 0.96 |
| GYCSWYRGWAP [TIMP3_Y195] | 0.502 | 0.715 | 0.655 | 1.25 | 0.8 | 1.32 | 0.691 | 1 | 0.807 | 1.33 | 1.04 | 1.53 | 0.975 | 0.671 | 0.712 | 1.38 |
| ERDTVYSSSGV [NELL2_Y350_N347D] | 0.447 | 0.492 | 0.847 | 1.5 | 0.435 | 0.601 | 0.451 | 0.584 | 0.502 | 1.79 | 0.617 | 0.883 | 0.42 | 1.78 | 0.52 | 0.711 |
| GGYTCYCDGKK [PROS1_Y266] | 0.549 | 0.79 | 0.766 | 0.462 | 0.537 | 1.2 | 0.484 | 0.728 | 0.457 | 0.499 | 0.915 | 1.38 | 0.439 | 0.403 | 0.474 | 0.985 |
| LPKVSYVKAID [GLRA1_Y307] | 0.459 | 0.768 | 0.868 | 0.434 | 0.402 | 0.563 | 0.34 | 0.433 | 0.423 | 0.338 | 0.444 | 0.652 | 0.542 | 0.391 | 0.411 | 0.629 |
| ATFRGYDSDNP [MMUT_Y146_H143Y_YF] | 0.572 | 0.718 | 1.01 | 0.528 | 0.424 | 0.811 | 0.553 | 0.531 | 0.571 | 0.425 | 0.666 | 0.896 | 0.373 | 0.51 | 0.513 | 0.904 |
| PSRKDYETFQS [CTNND2_Y1154_P1159S_YF] | 0.439 | 0.55 | 0.76 | 0.54 | 0.91 | 0.553 | 0.518 | 0.751 | 0.769 | 0.729 | 1.94 | 0.977 | 0.614 | 0.845 | 0.792 | 0.853 |
| RALCHYFKLNI [ETV6_Y401_R399C_YF] | 1.5 | 2.22 | 1.34 | 0.776 | 0.691 | 1.27 | 0.719 | 0.975 | 0.783 | 0.667 | 1.09 | 1.37 | 0.634 | 0.54 | 0.885 | 1.33 |

From the supplement of paper PMC10065799, “High-throughput profiling of sequence recognition by tyrosine kinases and SH2 domains using bacterial peptide display” (eLife, 2023)
